From paper PMC3200314

Target: recombinant neuraminidase ectodomain of A/California/04/2009 (pH1N1) (influenza A virus A/California/04/2009 (H1N1))
Experiment: SEC

With “recombinant neuraminidase ectodomain of A/California/04/2009 (pH1N1) (domain or fragment)” the stoichiometry N was 4.
